Measurements from the supplement of paper PMC10567573.

B1: SCNN1D (parent)
chain: RRPSPVLRHLELLDEFARENIDSL

Variants of: B1
Assay: protein stability index of a GFP-peptide fusion (GPS, HEK-293T) (PSI 1-6); higher = more stable
Conditions: c terminus: a fixed tail appended
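Further: lentivirally expressed fusions sorted by FACS into six bins by GFP to DsRed ratio, PSI derived from sequencing read proportions per bin multiplied by bin number.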

Variant	protein stability index
RRPSPVLRHLERLDEFARENIDSL	3.63
RRPSPVLRHLEALDEFARENIDSL	3.81
RRPSPVLRHLEHLDEFARENIDSL	4.25
RRPSPVLRHLEPLDEFARENIDSL	4.4
RRPSPVLRHLEILDEFARENIDSL	3.65
RRPSPVLRHLENLDEFARENIDSL	3.9
RRPSPVLRHLESLDEFARENIDSL	4.4
RRPSPVLRHLEGLDEFARENIDSL	4.09
RRPSPVLRHMELLDEFARENIDSL	2.34
RRPSPVLRHAELLDEFARENIDSL	3.84
RRPSPVLRHVELLDEFARENIDSL	3.41
RRPSPVLRHQELLDEFARENIDSL	3.84
RRPSPVLRHLELLDEFARENEDSL	3.27
RRPSPVLRHLELLDEFARENGDSL	3.38
RRPSPVLRHLELLDEFARENQDSL	3.59
RRPSPVLRHLELLDEFARENDDSL	3.36
RRPSPVLRHLELLDEFARENHDSL	3.61
RRPSPVLRHLELLDEFARENRDSL	2.96
RRPSPVLRHLELLDEFARENCDSL	2.43
RYPSPVLRHLELLDEFARENIDSL	1.63
RLPSPVLRHLELLDEFARENIDSL	1.94
RFPSPVLRHLELLDEFARENIDSL	2.22
RKPSPVLRHLELLDEFARENIDSL	2.85
RMPSPVLRHLELLDEFARENIDSL	2.5

Variant	protein stability index
REPSPVLRHLELLDEFARENIDSL	3.22
RTPSPVLRHLELLDEFARENIDSL	3.55
RRPSPVLRILELLDEFARENIDSL	2.24
RRPSPVLRMLELLDEFARENIDSL	1.89
RRPSPVLRWLELLDEFARENIDSL	1.69
RRPSPVLRRLELLDEFARENIDSL	3.92
RRPSPVLRFLELLDEFARENIDSL	1.74
RRPSPVLRQLELLDEFARENIDSL	3.79
RRPSPVLRNLELLDEFARENIDSL	4.09
RRPSPVLRGLELLDEFARENIDSL	3.76
RRPSPVLRYLELLDEFARENIDSL	1.83
RRPSPVLRSLELLDEFARENIDSL	3.68
RRPSPVLRTLELLDEFARENIDSL	3.83
RRPSPVLRELELLDEFARENIDSL	3.99
RRPSPVLRHLELLREFARENIDSL	2.27
RRPSPVLRHLELLPEFARENIDSL	2.92
RRPSPVLRHLELLYEFARENIDSL	2
RRPSPVLRHLELLCEFARENIDSL	1.59
RRPSPVLRHLELLKEFARENIDSL	1.8
RRPSPVLRHLELLAEFARENIDSL	1.67
RRPSPVLRHLELLSEFARENIDSL	2.16
RRPSPVLRHLELLIEFARENIDSL	1.78
RRPSGVLRHLELLDEFARENIDSL	3.53
RRPSFVLRHLELLDEFARENIDSL	2.19

Variant	protein stability index
RRPSMVLRHLELLDEFARENIDSL	2.5
RRPSIVLRHLELLDEFARENIDSL	2.27
RRPSLVLRHLELLDEFARENIDSL	2.06
RRPSDVLRHLELLDEFARENIDSL	3.08
RRPSWVLRHLELLDEFARENIDSL	1.93
RRPSAVLRHLELLDEFARENIDSL	2.4
RRPSPVLRHLELLDEQARENIDSL	3.14
RRPSPVLRHLELLDEPARENIDSL	3.72
RRPSPVLRHLELLDEGARENIDSL	4.12
RRPSPVLRHLELLDEYARENIDSL	3.09
RRPSPVLRHLELLDELARENIDSL	3.36
RRPSPVLRHLELLDEKARENIDSL	3.91
RRPSPVLRHLELLDEWARENIDSL	2.64
RRPSPVLRHLELLDEDARENIDSL	4.61
RRPSPVYRHLELLDEFARENIDSL	3.24
RRPSPVIRHLELLDEFARENIDSL	3.1
RRPSPVARHLELLDEFARENIDSL	3.04
RRPSPVNRHLELLDEFARENIDSL	3.6
RRPSPVFRHLELLDEFARENIDSL	3.29
RRPSPVGRHLELLDEFARENIDSL	4.17
RRPSPVMRHLELLDEFARENIDSL	2.9
RRPSPVCRHLELLDEFARENIDSL	3.53
RRPFPVLRHLELLDEFARENIDSL	2.47
RRPYPVLRHLELLDEFARENIDSL	2.5

Variant	protein stability index
RRPWPVLRHLELLDEFARENIDSL	2.35
RRPDPVLRHLELLDEFARENIDSL	3.68
RRPEPVLRHLELLDEFARENIDSL	3.61
RRPIPVLRHLELLDEFARENIDSL	2.67
RRPAPVLRHLELLDEFARENIDSL	2.63
RRPNPVLRHLELLDEFARENIDSL	2.34
RRPSPVLRHLELLDEFARENIDSP	3.19
RRPSPVLRHLELLDEFARENIDSK	3.29
RRPSPVLRHLELLDEFARENIDSQ	3.23
RRPSPVLRHLELLDEFARENIDSN	3.29
RRPSPVLRHLELLDEFARENIDSF	2.07
RRPSPVLRHLELLDEFARENIDSA	3.52
RRPSPVLRHLELLDEFARENIDST	3.3
RRPSPVLRHLELLDEFARENIDSC	2.73
RRPSPVLRHLELLDEFARENIDSH	2.88
RRPSPVLRHLELLDEFSRENIDSL	4.37
RRPSPVLRHLELLDEFRRENIDSL	2.94
RRPSPVLRHLELLDEFWRENIDSL	3.03
RRPSPVLRHLELLDEFVRENIDSL	2.94
RRPSPVLRHLELLDEFCRENIDSL	3.38
RRPSPVLRHLELLDEFGRENIDSL	3.72
RRPSPVLRHLELLDEFHRENIDSL	3.74
RRPSPVLRHLELLDEFERENIDSL	4.18
RRPSPVLRHLELLDEFNRENIDSL	4.14

Variant	protein stability index
RRPSPVLRHLELLDEFARSNIDSL	2.74
RRPSPVLRHLELLDEFARANIDSL	3.18
RRPSPVLRHLELLDEFARPNIDSL	2.72
RRPSPVLRHLELLDEFARLNIDSL	2.52
RRPSPVLRHLELLDEFARDNIDSL	2.73
RRPSPVLRHLELLDEFARYNIDSL	2.39
RRPSPVLRHLELLDEFARHNIDSL	2.5
RRPSPVLRHLELLDEFARCNIDSL	2.66
RRPSPVLRHLELLDEFARRNIDSL	2.61
RRPSPVLRHLELLDEFARGNIDSL	3.88
RRPSPDLRHLELLDEFARENIDSL	4.09
RRPSPFLRHLELLDEFARENIDSL	2.28
RRPSPILRHLELLDEFARENIDSL	1.95
RRPSPPLRHLELLDEFARENIDSL	4.22
RRPSPSLRHLELLDEFARENIDSL	3.48
RRPSPVLRHLILLDEFARENIDSL	1.9
RRPSPVLRHLTLLDEFARENIDSL	2.41
RRPSPVLRHLWLLDEFARENIDSL	2.49
RRPSPVLRHLDLLDEFARENIDSL	3.55
RRPSPVLRHLCLLDEFARENIDSL	2.01
RRPSPVLRHLSLLDEFARENIDSL	3.25
RRSSPVLRHLELLDEFARENIDSL	2.72
RRQSPVLRHLELLDEFARENIDSL	1.92
RRGSPVLRHLELLDEFARENIDSL	2.75

Variant	protein stability index
RRHSPVLRHLELLDEFARENIDSL	1.96
RRWSPVLRHLELLDEFARENIDSL	1.76
RRISPVLRHLELLDEFARENIDSL	1.96
YRPSPVLRHLELLDEFARENIDSL	1.72
WRPSPVLRHLELLDEFARENIDSL	2.18
VRPSPVLRHLELLDEFARENIDSL	2.36
ERPSPVLRHLELLDEFARENIDSL	3.36
SRPSPVLRHLELLDEFARENIDSL	2.63
IRPSPVLRHLELLDEFARENIDSL	2.1
RRPSPVLRHLELLDEFAWENIDSL	1.73
RRPSPVLRHLELLDEFAGENIDSL	3.6
RRPSPVLRHLELLDEFAQENIDSL	2.84
RRPSPVLRHLELLDEFADENIDSL	3.44
RRPSPVLRHLELLDEFAVENIDSL	2.35
RRPSPVLRHLELLDEFAYENIDSL	2.7
RRPSPVLRHLELLDEFAIENIDSL	2.44
RRPSPVLRHLELLDEFAAENIDSL	2.37
RRPSPVLRHLELLDEFALENIDSL	2.43
RRPSPVLRHLELLDEFANENIDSL	2.42
RRPSPVLRHLELRDEFARENIDSL	3.6
RRPSPVLRHLELFDEFARENIDSL	3.14
RRPSPVLRHLELIDEFARENIDSL	3.73
RRPSPVLRHLELPDEFARENIDSL	4.21
RRPSPVLRHLELYDEFARENIDSL	3.19

Variant	protein stability index
RRPSPVLRHLELEDEFARENIDSL	4.48
RRPSPVLRHLELGDEFARENIDSL	4.23
RRPSPVLRHLELLDEFARENIDTL	2.74
RRPSPVLRHLELLDEFARENIDRL	3.44
RRPSPVLRHLELLDEFARENIDGL	3.33
RRPSPVLRHLELLDEFARENIDML	2.56
RRPSPVLRHLELLDEFARENIDNL	2.94
RRPSPVLRHLELLDEFARENIDPL	2.99
RRPSPVLRHLELLDEFARENIDHL	2.7
RRPSPVLRHLELLDEFARENIDAL	2.07
RRPSPVLWHLELLDEFARENIDSL	2.7
RRPSPVLFHLELLDEFARENIDSL	2.61
RRPSPVLIHLELLDEFARENIDSL	2.37
RRPSPVLDHLELLDEFARENIDSL	4.71
RRPSPVLMHLELLDEFARENIDSL	3.43
RRPSPVLKHLELLDEFARENIDSL	3.5
RRPSPVLCHLELLDEFARENIDSL	2.09
RRPSPVLPHLELLDEFARENIDSL	4.18
RRPSPVLLHLELLDEFARENIDSL	2.49
RRPSPVLQHLELLDEFARENIDSL	4.09
RRPSPVLRHLELLDAFARENIDSL	2.97
RRPSPVLRHLELLDLFARENIDSL	1.76
RRPSPVLRHLELLDKFARENIDSL	2.82
RRPSPVLRHLELLDYFARENIDSL	1.83

Variant	protein stability index
RRPSPVLRHLELLDDFARENIDSL	3.21
RRPSPVLRHLELLDPFARENIDSL	3.02
RRPSPVLRHLELLDFFARENIDSL	2.03
RRPSPVLRHLELLDWFARENIDSL	2.05
RRPSPVLRHLELLDNFARENIDSL	3.41
RRPSPVLRHLELLDEFAREFIDSL	2.52
RRPSPVLRHLELLDEFAREMIDSL	1.77
RRPSPVLRHLELLDEFAREYIDSL	2.07
RRPSPVLRHLELLDEFAREVIDSL	2.54
RRPSPVLRHLELLDEFARETIDSL	1.93
RRPSPVLRHLELLDEFAREIIDSL	1.74
RRPSPVLRHLELLDEFARERIDSL	2.72
RRPSPVLRHLELLDEFAREAIDSL	2.35
RRPSPVLRHLELLDEFARECIDSL	2.33
RRPSPVLRHLELLDEFARENIFSL	1.57
RRPSPVLRHLELLDEFARENIESL	2.99
RRPSPVLRHLELLDEFARENIYSL	1.8
RRPSPVLRHLELLDEFARENIVSL	2.03
RRPSPVLRHLELLDEFARENIHSL	2.87
RRPSPVLRHLELLDEFARENIMSL	1.47
